Experiments:
[1] = target: T1, mouse PD-1 transiently expressed by HEK-293 cells (mouse, UniProt Q02242 25-288); assay: flow cytometry competition: blocking of biotinylated PD-L1-Fc binding to muPD-1 on transfected HEK-293 cells
T1 construct: whole, on cells; also called muPD-1
T1 sequence (looked up): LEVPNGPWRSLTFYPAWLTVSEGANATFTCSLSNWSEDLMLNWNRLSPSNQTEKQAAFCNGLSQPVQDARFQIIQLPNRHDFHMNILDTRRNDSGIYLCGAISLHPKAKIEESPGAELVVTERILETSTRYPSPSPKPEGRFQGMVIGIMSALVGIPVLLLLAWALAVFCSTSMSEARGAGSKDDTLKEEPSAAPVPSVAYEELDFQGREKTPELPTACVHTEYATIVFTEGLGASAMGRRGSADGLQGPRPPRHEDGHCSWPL
Procedure: FIG. 31 is a graphical representation showing antibody competition of PD-1/PD-L1 binding. HEK-293 cells transiently transfected with mouse PD-1 were incubated with various concentrations of either anti-RANKL/PD-1 bispecific, anti-PD-1 mAb RMP1-14, rat IgG2a isotype control or human IgG1 isotype control for 30 minutes on ice. Secondly, cells were incubated with 2.5 μg of biotinylated recombinant murine PD-L1-Fc for an additional 30 minutes on ice. After two washes with FACS buffer (PBS+10% FCS), a final incubation with Streptavidin-APC for extra 30 minutes on ice. Samples and data were analyzed on a Fortessa 4 (BD Biosciences) flow cytometer and analyzed with FlowJo v10 software (Tree Star, Inc.). Representative FACS plots and summary data of inhibition of PD-L1-Fc binding of two independent experiments are shown.

[2] = target: T1, mouse PD-1 transiently expressed by …; assay: summary sentence of Example 25
[3] = target: T2, mouse RANKL transiently expressed by HEK-293 cells (mouse, UniProt O35235 1-316); assay: flow cytometry competition: blocking of biotinylated RANK-Fc binding to muRANKL on transfected HEK-293 cells
T2 construct: whole, on cells; also called muRANKL
T2 sequence (looked up): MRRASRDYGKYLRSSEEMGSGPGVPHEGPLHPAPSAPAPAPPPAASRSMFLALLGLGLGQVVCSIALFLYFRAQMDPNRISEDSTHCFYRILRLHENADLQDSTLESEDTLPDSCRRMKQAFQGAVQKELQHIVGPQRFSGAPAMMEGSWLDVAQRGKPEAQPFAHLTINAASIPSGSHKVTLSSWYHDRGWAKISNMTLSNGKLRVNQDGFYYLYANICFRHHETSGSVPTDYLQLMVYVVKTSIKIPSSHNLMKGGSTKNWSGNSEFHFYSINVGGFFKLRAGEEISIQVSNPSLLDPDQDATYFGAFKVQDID
Procedure: FIG. 29 is a graphical representation showing antibody competition of RANKL-RANK binding. HEK-293 cells transiently transfected with mouse RANKL were incubated with various concentrations of either anti-RANKL/PD-1 bispecific, anti-RANKL mAb IK22-5, rat IgG2a isotype control or human IgG1 isotype control for 30 minutes on ice. Secondly, cells were incubated with 2.5 μg of biotinylated recombinant murine RANK-Fc for an additional 30 minutes on ice. After two washes with FACS buffer (PBS+10% FCS), a final incubation with Streptavidin-APC for extra 30 minutes on ice. Samples and data were analyzed on a Fortessa 4 (BD Biosciences) flow cytometer and analyzed with FlowJo v10 software (Tree Star, Inc.). Representative FACS plots and summary data of inhibition of RANK-Fc binding of two independent experiments are shown.

B1: anti-PD-1 mAb RMP1-14 (rat IgG2a) (antibody, V domains shown)
VH: EVQLQESGPGLVKPSQSLSLTCSVTGYSITSSYRWNWIRKFPGNRLEWMGYINSAGISNYNPSLKRRISITRDTSKNQFFLQVNSVTTEDAATYYCARSDNMGTTPFTYWGQGTLVTVSS
VL: DIVMTQGTLPNPVPSGESVSITCRSSKSLLYSDGKTYLNWYLQRPGQSPQLLIYWMSTRASGVSDRFSGSGSGTDFTLKISGVEAEDVGIYYCQQGLEFPTFGGGTKLELK
notes: Rat IgG2a monoclonal antibody; also called anti-muPD-1 antibody (RMP1-14 rat IgG2a)
B1: binds [1].

B2: bispecific anti-RANKL/PD-1 antibody (IK22-5/RMP1-14) (bispecific antibody)
heavy 1: QVQLKESGPGLVLSSATLSLTCTVSGFSLTNYDVSWIRHLPGKGLEWMGGVWLSGNTEYNSDFKSRLSISRDISKSQVFLKMSNLKIEDTGTYYCARDIGTTSDYWGQGVTVTVSSASTKGPSVFPLAPSSKSTSGGTAALGCLVKDYFPEPVTVSWNSGALTSGVHTFPAVLQSSGLYSLSSVVTVPSSSLGTQTYICNVNHKPSNTKVDKKVEPKSCDKTHTCPPCPAPELLGGPSVFLFPPKPKDTLMISRTPEVTCVVVAVSHEDPEVKFNWYVDGVEVHNAKTKPREEQYNSTYRVVSVLTVLHQDWLNGKEYKCKVSNKALPAPIEKTISKAKGQPREPQVYTLPPCRDELTKNQVSLWCLVKGFYPSDIAVEWESNGQPENNYKTTPPVLDSDGSFFLYSKLTVDKSRWQQGNVFSCSVLHEALHNHYTQKSLSLSPGK
light 1: DIQVTQSPSFLSASVGDRVTFNCKTSQNINKYLAWYQAKFGEGPKLLIFNADSLQSGIPPRFSGSGSGTDFTLTISGLQPEDFATYFCLQYNSWPTFGSGTKLEIKRTVAAPSVFIFPPSDEQLKSGTASVVCLLNNFYPREAKVQWKVDNALQSGNSQESVTEQDSKDSTYSLSSTLTLSKADYEKHKVYACEVTHQGLSSPVTKSFNRGEC
heavy 2: EVQLQESGPGLVKPSQSLSLTCSVTGYSITSSYRWNWIRKFPGNRLEWMGYINSAGISNYNPSLKRRISITRDTSKNQFFLQVNSVTTEDAATYYCARSDNMGTTPFTYWGQGTLVTVSSRTVAAPSVFIFPPSDEQLKSGTASVVCLLNNFYPREAKVQWKVDNALQSGNSQESVTEQDSKDSTYSLSSTLTLSKADYEKHKVYACEVTHQGLSSPVTKSFNRGECDKTHTCPPCPAPELLGGPSVFLFPPKPKDTLMISRTPEVTCVVVAVSHEDPEVKFNWYVDGVEVHNAKTKPREEQYNSTYRVVSVLTVLHQDWLNGKEYKCKVSNKALPAPIEKTISKAKGQPREPQVCTLPPSRDELTKNQVSLSCAVKGFYPSDIAVEWESNGQPENNYKTTPPVLDSDGSFFLVSKLTVDKSRWQQGNVFSCSVLHEALHNHYTQKSLSLSPGK
light 2: DIVMTQGTLPNPVPSGESVSITCRSSKSLLYSDGKTYLNWYLQRPGQSPQLLIYWMSTRASGVSDRFSGSGSGTDFTLKISGVEAEDVGIYYCQQGLEFPTFGGGTKLELKASTKGPSVFPLAPSSKSTSGGTAALGCLVKDYFPEPVTVSWNSGALTSGVHTFPAVLQSSGLYSLSSVVTVPSSSLGTQTYICNVNHKPSNTKVDKKVEPKSC
notes: also called RMP1-14 CH-CL X IK22/5 WT bispecific; anti-RANKL/PD-1 bispecific
In the case of B2, the binding result [2] is reported as “binds” and the IC50 [3] is reported as 2.6 µg/mL.

B3: anti-RANKL mAb IK22-5 (rat IgG2a) (antibody, V domains shown)
VH: QVQLKESGPGLVLSSATLSLTCTVSGFSLTNYDVSWIRHLPGKGLEWMGGVWLSGNTEYNSDFKSRLSISRDISKSQVFLKMSNLKIEDTGTYYCARDIGTTSDYWGQGVTVTVSS
VL: DIQVTQSPSFLSASVGDRVTFNCKTSQNINKYLAWYQAKFGEGPKLLIFNADSLQSGIPPRFSGSGSGTDFTLTISGLQPEDFATYFCLQYNSWPTFGSGTKLEIK
notes: Rat IgG2a monoclonal antibody; also called anti-muRANKL antibody (IK22-5 rat IgG2a)
For B3, the IC50 [3] was 1.1 µg/mL.

— patent publication US20230042913A1 (COUNCIL OF THE QUEENSLAND INSTITUTE OF MEDICAL RESEARCH, published 2023)
